T1: mouse TNFR1 (biotinylated, immobilized on SPR chip) (mouse (Mus musculus), UniProt P25118 30-212, biotinylated (site not stated))
T1 construct: also called murine TNFR1; mTNFR1
T1 sequence: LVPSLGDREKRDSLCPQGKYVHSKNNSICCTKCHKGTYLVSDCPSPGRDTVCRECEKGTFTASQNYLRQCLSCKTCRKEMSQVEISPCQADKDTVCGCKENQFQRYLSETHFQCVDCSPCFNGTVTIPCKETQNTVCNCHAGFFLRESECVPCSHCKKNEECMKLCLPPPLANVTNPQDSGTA

T2: human TNFR1 (biotinylated, immobilized on SPR chip) (human (Homo sapiens), UniProt P19438 30-211, biotinylated (site not stated))
T2 construct: also called hTNFR1
T2 sequence: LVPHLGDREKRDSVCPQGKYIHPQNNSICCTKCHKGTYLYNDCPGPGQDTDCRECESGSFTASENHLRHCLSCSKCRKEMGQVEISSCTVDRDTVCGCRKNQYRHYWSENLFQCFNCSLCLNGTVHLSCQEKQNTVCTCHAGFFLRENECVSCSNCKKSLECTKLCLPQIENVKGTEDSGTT


Assays:
[1] = molecular target: T1, mouse TNFR1 (biotinylated, immobilized …); assay: SPR (BIACORE 3000), biotinylated mouse TNFR1 on streptavidin chip, competition with chimeric TNFR1 proteins
Description: (§1) If the dAb is pre-incubated and equilibrated with a chimeric molecule that comprises the domain(s) of TNFR1 that the particular dAb binds, then flow of this mixture over the TNFR1 surface will produce a smaller SPR signal relative to the dAb alone.
(§2) The choice of TNFR1 surface is determined by the species specificity of the anti-TNFR1 dAb to be tested. Therefore anti-human TNFR1 dAbs were evaluated using a surface coated with human TNFR1 and anti-mouse TNFR1 dAbs were evaluated using a chip coated with mouse TNFR1.
(§3) Biotinylated TNFR1 was diluted in the appropriate SPR buffer and run across a streptavidin (SA) sensor chip in a BIACORE 3000 SPR instrument (Biacore International AB, Uppsala, Sweden). A low flow-rate (5-10 μl/minute) was used in order to maximise the contact time between the biotinylated TNFR1 and the streptavidin surface. Flow continued until the streptavidin surface was saturated with biotinylated material, in order to generate a chip with maximal TNFR1 surface.

[2] = molecular target: T2, human TNFR1 (biotinylated, immobilized …); assay: SPR (BIACORE 3000), biotinylated human TNFR1 on streptavidin chip, competition with chimeric TNFR1 proteins
Description: as §1, §2, §3

binding result [1] | binding result [2] | Binder
binds | – | TAR2m-21-23 (other, Domain antibody (dAb), a single immunoglobulin VH variable domain; also called anti-mouse TNFR1 dAb) VH: EVQLLESGGGLVQPGGSLRLSCAASGFTFNRYSMGWLRQAPGKGLEWVSRIDSYGRGTYYEDPVKGRFSISRDNSKNTLYLQMNSLRAEDTAVYYCAKISQFGSNAFDYWGQGTQVTVSS
– | binds | TAR2h-205 (other, Domain antibody (dAb), a single immunoglobulin VH variable domain; also called anti-human TNFR1 dAb) VH: EVQLLESGGGLVQPGGSLRLSCAASGFTFVKYSMGWVRQAPGKGLEWVSQISNTGGHTYYADSVKGRFTISRDNSKNTLYLQMNSLRAEDTAVYYCAKYTGRWEPFDYWGQGTLVTVSS

— patent US20070298041A1 (published 2007)
